Assay results published in publication PMC3672029 (BMC Structural Biology, 2013).

Molecular target: the molecule itself
Assay: crystal structure; Se-Met MJ0391 (28 mg/mL), sitting-drop vapor diffusion at 293 K, 50%(v/v) PEG-400, 0.1 M MES pH 6.0; MAD, refined at 2.3 Å; two NCS molecules in the asymmetric unit, tetramer generated by the crystallographic 2-fold axis

B1: hypothetical protein MJ0391 from Methanocaldococcus jannaschii (putative CbiT) (enzyme, Methanocaldococcus jannaschii DSM 2661)
chain: MKYMIPDEEFIRREGVPITKEEIRAVSIGKLNLNKDDVVVDVGCGSGGMTVEIAKRCKFVYAIDYLDGAIEVTKQNLAKFNIKNCQIIKGRAEDVLDKLEFNKAFIGGTKNIEKIIEILDKKKINHIVANTIVLENAAKIINEFESRGYNVDAVNVFISYAKKIPSGHMFLAKNPITIIKAVR
modifications: selenomethionine in place of methionine (Se-Met protein; Mse4 and Mse169 are printed)
notes: MJ0391 protein, putative CbiT (cobalt-precorrin-7 C15-methyltransferase / C12-decarboxylase), Methanocaldococcus jannaschii DSM 2661; gene amplified from genomic DNA and cloned into pET-21a; 183 amino acid residues and 21 kDa per monomer; residues 1-3 are not seen in the final model
stoichiometry N: 4
